# Results taken from PMC13399505.
# Columns and labels:
# [1] = biological target: BUNV ∆7-Gc-HA (HA-tagged head/stalk-deleted Gc glycoprotein expressed by rBUNV-∆7-Gc-HA) (Bunyamwera orthobunyavirus); test: affinity purification with mass spectrometry; C6/36 (insect) cells mock-infected or infected at MOI 1, 24 hpi; anti-HA immunoprecipitation of Gc-HA, TMTpro 16plex TMT-MS of the bead fractions, three biological repeats; abundances normalised to common Gc peptides
# [2] = biological target: BUNV ∆7-Gc-HA (HA-tagged head/stalk-deleted Gc glycoprotein expressed by rBUNV-∆7-Gc-HA) (Bunyamwera orthobunyavirus); test: affinity purification with mass spectrometry; A549 (mammalian) cells mock-infected or infected at MOI 1, 24 hpi; anti-HA immunoprecipitation of Gc-HA, TMTpro 16plex TMT-MS of the bead fractions, three biological repeats; abundances normalised to common Gc peptides
substance,measurement,setting,value
BUNV nucleocapsid protein (NP) (from UniProt P16495 1-233) (natural protein),"log2 fold change of NP precipitated, WT-Gc-HA over ∆7-Gc-HA (log2 fold change)",[1],2.76
same,"log2 fold change of NP precipitated, WT-Gc-HA over ∆7-Gc-HA (log2 fold change)",[2],0.24
